Laboratory results taken from patent US20050260657A1.

Experiments:
[1] = molecular target: endogenous IP3R1 of HeLa cells (UniProt Q14643); experiment: cell-based or functional assay
[2] = molecular target: IP3R1 (inositol 1,4,5-trisphosphate receptor type 1), untagged, expressed in cells (mouse) (UniProt P11881); experiment: cell-based or functional assay

Chain of endogenous IP3R1 of HeLa cells (Q14643 whole entry): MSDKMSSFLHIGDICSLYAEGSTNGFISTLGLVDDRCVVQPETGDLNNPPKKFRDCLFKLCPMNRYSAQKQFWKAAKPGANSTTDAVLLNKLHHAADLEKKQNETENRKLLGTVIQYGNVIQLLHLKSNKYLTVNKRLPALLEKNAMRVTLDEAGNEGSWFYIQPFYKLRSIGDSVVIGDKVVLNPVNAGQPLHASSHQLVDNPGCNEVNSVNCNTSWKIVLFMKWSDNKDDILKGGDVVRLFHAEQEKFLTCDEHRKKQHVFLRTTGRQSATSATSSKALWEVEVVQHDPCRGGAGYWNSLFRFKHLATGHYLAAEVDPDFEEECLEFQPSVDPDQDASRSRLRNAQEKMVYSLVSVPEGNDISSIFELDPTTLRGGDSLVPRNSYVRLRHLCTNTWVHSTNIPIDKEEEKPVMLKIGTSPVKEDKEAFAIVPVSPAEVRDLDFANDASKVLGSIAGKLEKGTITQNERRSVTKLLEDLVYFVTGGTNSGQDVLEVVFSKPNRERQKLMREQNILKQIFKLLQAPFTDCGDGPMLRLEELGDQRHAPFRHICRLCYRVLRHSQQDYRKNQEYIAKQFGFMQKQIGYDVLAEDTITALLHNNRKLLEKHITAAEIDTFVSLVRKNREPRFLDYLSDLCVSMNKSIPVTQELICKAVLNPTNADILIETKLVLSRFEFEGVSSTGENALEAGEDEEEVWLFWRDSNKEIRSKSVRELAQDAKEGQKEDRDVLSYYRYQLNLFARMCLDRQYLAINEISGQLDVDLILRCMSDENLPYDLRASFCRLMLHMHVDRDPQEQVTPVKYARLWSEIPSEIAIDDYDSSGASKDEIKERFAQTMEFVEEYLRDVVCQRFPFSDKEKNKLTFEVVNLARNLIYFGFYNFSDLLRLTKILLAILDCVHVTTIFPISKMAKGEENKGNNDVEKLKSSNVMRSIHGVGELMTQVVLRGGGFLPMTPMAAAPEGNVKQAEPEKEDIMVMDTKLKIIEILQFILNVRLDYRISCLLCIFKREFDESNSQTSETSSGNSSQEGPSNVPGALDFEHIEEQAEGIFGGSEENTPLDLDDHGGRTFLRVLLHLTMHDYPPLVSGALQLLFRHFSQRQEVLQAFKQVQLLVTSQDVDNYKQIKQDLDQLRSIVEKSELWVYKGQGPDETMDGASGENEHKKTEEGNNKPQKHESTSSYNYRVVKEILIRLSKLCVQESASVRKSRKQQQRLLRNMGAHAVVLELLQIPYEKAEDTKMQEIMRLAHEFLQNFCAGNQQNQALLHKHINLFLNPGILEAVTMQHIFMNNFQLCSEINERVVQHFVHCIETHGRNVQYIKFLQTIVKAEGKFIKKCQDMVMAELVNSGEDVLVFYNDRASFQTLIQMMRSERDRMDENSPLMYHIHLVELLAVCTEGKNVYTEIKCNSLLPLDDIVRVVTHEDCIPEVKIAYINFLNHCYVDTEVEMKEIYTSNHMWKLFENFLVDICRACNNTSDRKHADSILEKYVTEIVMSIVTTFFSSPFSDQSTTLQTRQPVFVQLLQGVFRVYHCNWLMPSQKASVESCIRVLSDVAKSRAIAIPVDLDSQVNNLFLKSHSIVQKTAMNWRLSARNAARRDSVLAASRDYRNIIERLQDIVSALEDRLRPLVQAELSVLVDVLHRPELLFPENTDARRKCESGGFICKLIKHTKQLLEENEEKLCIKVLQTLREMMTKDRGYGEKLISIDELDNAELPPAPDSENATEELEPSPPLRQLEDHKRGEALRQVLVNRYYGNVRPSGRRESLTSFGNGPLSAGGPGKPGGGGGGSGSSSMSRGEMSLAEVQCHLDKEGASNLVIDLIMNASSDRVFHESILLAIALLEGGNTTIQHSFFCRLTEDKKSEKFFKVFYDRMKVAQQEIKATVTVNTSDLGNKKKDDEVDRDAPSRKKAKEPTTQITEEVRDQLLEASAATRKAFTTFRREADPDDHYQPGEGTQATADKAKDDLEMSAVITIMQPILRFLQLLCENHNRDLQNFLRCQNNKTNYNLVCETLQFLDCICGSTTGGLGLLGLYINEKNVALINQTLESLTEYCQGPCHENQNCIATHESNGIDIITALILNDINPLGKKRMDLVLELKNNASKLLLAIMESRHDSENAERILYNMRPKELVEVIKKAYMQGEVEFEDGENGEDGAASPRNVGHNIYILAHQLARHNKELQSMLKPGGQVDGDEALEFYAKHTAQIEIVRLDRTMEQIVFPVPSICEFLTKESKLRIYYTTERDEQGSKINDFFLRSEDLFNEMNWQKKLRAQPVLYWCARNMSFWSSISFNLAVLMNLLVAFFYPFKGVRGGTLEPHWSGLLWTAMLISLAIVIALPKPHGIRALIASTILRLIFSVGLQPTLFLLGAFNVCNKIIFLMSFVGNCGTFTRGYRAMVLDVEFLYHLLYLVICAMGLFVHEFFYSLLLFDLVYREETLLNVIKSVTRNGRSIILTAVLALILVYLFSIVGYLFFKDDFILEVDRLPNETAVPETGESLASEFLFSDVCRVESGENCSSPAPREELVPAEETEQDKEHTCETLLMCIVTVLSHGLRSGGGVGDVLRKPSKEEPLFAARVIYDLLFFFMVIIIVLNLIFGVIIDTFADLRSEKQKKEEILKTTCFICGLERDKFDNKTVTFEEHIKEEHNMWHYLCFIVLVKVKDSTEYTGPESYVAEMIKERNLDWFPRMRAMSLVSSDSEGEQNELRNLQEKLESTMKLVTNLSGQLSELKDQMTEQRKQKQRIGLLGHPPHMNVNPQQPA

| Substance | peak amplitude of ATP-induced Ca2+ transient in HeLa cells, percent of non-transfected cells [1] | peak amplitude of BCR-induced Ca2+ release in DT40-KMN60 cells, percent of non-transfected cells [2] | Ca2+ response in siERp44-3U-pretreated HeLa cells compared with RFP-RDEL-transfected cells [1] |
| --- | --- | --- | --- |
| RFP-ERp44 (red fluorescent protein-tagged ERp44) (from UniProt Q9D1Q6 30-406) | 69.3% | 60.6% | – |
| RFP-ERp44-C58S (from UniProt Q9D1Q6 30-406) | – | – | 77.1% |
